According to patent US20130225434A1 (BOARD OF TRUSTEES OF THE UNIVERSITY OF ILLINOIS, published 2013):
Square brackets hold non-standard residues; d marks the D form. * marks the point of attachment. Biotin = O=C1N[C@H]2[C@H](CS[C@H]2CCCCC(=O)*)N1; pY = N[C@@H](Cc1ccc(OP(=O)(O)O)cc1)C(=O)O; pT = C[C@@H](OP(=O)(O)O)[C@H](N)C(=O)O; pS = N[C@@H](COP(=O)(O)O)C(=O)O

Key:
[1] = target: Rad9-pT peptide with SGS linker (SGS-SLEVp…) (yeast); experiment: FTS assay, 4 µM protein, 250 µM pT peptide
[2] = target: Rad9-pT peptide with SGS linker (SGS-SLEVp…) (yeast); experiment: FTS assay, 4 µM protein, 50 µM pT peptide
[3] = target: Rad9-pT peptide with SGS linker (SGS-SLEVp…) (yeast); experiment: FTS assay, 1 µM protein, 250 µM pT peptide
[4] = target: Rad9-pT peptide with SGS linker (SGS-SLEVp…) (yeast); experiment: FTS assay, 1 µM protein, 50 µM pT peptide
[5] = target: Rad9 pT peptide used for ITC (SLEVp…) (yeast); experiment: ITC
[6] = target: Rad9 pT peptide used for ITC (SLEVp…) (yeast); experiment: ITC, pT peptide injected into 35 µM FHA1 domain, three repeats
[7] = target: T1, BRCT-pS (SMILES …); experiment: ELISA with GST fusion (cell lysate); biotinylated peptide on Neutravidin; anti-GST-HRP, A405 [b]
T1 construct: also called Biotin-BRCT-pS
T1 peptide: Biotin-SGSAYDI[pS]QVFPFAKKK-NH2

[8] = target: T2, WT FHA1 domain of S. cerevisiae Rad53, phage-displayed (protein III fusion on bacteriophage M13) (Saccharomyces cerevisiae; bacteriophage …, UniProt P22216 1-170); experiment: phage ELISA; biotinylated peptide on Neutravidin; anti-M13-HRP, A405 [a]
T2 construct: not shown: minor coat protein III (pIII, gene III product) of bacteriophage M13
T2 sequence: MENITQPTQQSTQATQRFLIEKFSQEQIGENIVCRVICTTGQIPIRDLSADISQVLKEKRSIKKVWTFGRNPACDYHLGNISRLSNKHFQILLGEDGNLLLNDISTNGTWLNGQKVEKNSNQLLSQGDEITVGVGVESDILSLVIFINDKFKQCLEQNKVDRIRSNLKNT
From the text: Binding of phage particles was detected using anti-M13 antibody conjugated to HRP. FIG. 4(b) is a graph of the results of ELISA experiments of GST fusions of the WT FHA1 domain and three of its variants, 3C-3S, 4C-4S, and D2, that bound specifically to the cognate pT peptide (Rad9-pT; shown as solid histograms) immobilized on plastic microtiter plate wells via Neutravidin. Binding was detected using anti-GST antibody conjugated to HRP. The peptide sequences for Rad9-pT, Rad9-T, Rad9-pS, Rad9-pY, Plk1-pT and BRCT-pS are SGSSLEVp[…] (SEQ ID NO: 1), […] (SEQ ID NO: 2), SGSSLEVp[…] (SEQ ID NO: 3), SGSSLEVp[…] (SEQ ID NO: 4), […]p[…] (SEQ ID NO: 5) and SGSAYDIp[…] (SEQ ID NO: 6), respectively. The peptide sequence for the WT FHA1 domain from S. cerevisiae Rad53 protein kinase includes […] (SEQ ID NO:7), which includes residues 1-170 of S. cerevisiae Rad53 (SEQ ID NO:8) (Liao et al. (2000) J. Mol. Biol 304, 941-51; Durocher et al. (1999) Mol Cell 4). […] The β-strands are labeled from 1 to 11 in the WT FHA1 domain structure and the N- and C-termini are noted.

[9] = target: T3, Rad9-pT peptide with SGS linker (SGS-SLEVpTEADATFYAKK) (yeast, SMILES …); experiment: phage ELISA on immobilized Rad9-pT, phage normalised to the Flag epitope; anti-M13-HRP, A405
T3 construct: also called cognate pT peptide; Rad-pT
T3 peptide: Biotin-SGSSLEV[pT]EADATFYAKK-NH2
From the text: Through Kunkel mutagenesis (Yaffe (2002) Nat Rev Mol Cell Bol 3, 177-86), the amino acid residue at position 34 in the β1 strand of the D2 FHA 1 domain was replaced (from the naturally-occurring V) one at a time with each of the other naturally occurring amino acids and binding to the immobilized Rad9-pT peptide was monitored by phage ELISA. Phage binding was detected using anti-M13 antibody conjugated to Horse Radish Peroxidase (HRP). […] All the variants display an N-terminal Flag peptide and the amount of phage particles used for each variant in this experiment has been normalized for this epitope.
To amplify the phage particles displaying the recombinant FHA1 variants, TG1 bacterial cells (5 mL; Stratagene) harboring the phagemid DNA were infected at mid-log (OD₆₀₀ₙₘ=0.5-0.6) with M13K07 helper phage (New England Biolabs) at a multiplicity of infection (MOI) of 20 for 1 h at 37° C. at 150 rpm. Infected cells were centrifuged, and the pellet was resuspended in fresh Luria Bertani medium (LB: 10 g Tryptone, 5 g Yeast extract, and 10 g NaCl per liter) supplemented with 50 μg/mL carbenicillin and 50 μg/ml kanamycin, and phage were amplified overnight at 30° C. at 250 rpm. All of the phage ELISA steps were performed at room temperature. Biotinylated peptides (100 μL, 5 μg/mL) were immobilized on Nunc MaxiSorp flat-bottom 96 well plates (Thermo Fisher Scientific) via NeutrAvidin™ Biotin binding protein (100 μL, 10 μg/mL; Thermo Fisher Scientific) and blocked with 2% skim milk in 1×PBS (200 μL per well).

[10] = target: T1, BRCT-pS; experiment: phage ELISA; biotinylated peptide on Neutravidin, A405
Description: FIG. 9A is a photograph of 96-well plates containing phage supernatants from 96 individual clones, which were isolated after three rounds of selection, heated (50° C.), cooled, and added to microtiter plate wells coated with the phosphopeptide ligand. Binding of phage particles in the wells was monitored with an anti-M13 antibody conjugated to HRP. FIG. 9B is a graph showing the ratio of the ELISA signals for individual phage clones generated with wells contained with the target protein compared to a negative control protein (background).
Phage particles produced from 96 clones isolated after round #3, were heated at 50° C. for 3 hr and cooled to RT. The phage supernatants were then incubated with both the target peptide (500 ng/well) immobilized on NeutrAvidin (1 μg/well) coated plate wells and an unrelated target (background). Binding phage clones were detected using anti-M13 antibody conjugated to HRP (GE Healthcare). The green, colored product of the enzymatic reaction in the microtiter plate wells was measured at 405 nm using the FLUOstar OPTIMA plate reader (BMG Labtech). […] In some cases, the signal over background ratio ranged from 3 to 20 for clones (FIG. 9B).

Molecule: WT FHA1 domain, purified with C-terminal six-histidine tag (from UniProt P22216 1-170)
- Tm shift in the presence of pT peptide [1]: 3.55 ° C.
- Tm shift in the presence of pT peptide [2]: 1.95 ° C.
- Tm shift in the presence of pT peptide [3]: 3.8 ° C.
- Tm shift in the presence of pT peptide [4]: 1.7 ° C.
- stoichiometry [5]: 1
- Kd [6]: 1000 nM

B1: 3C-3S variant of the FHA1 domain, GST fusion (other)
chain: MENITQPTQQSTQATQRFLIEKFSQEQIGENIVSRVISTTGQIPIRDLSADISQVLKEKRSIKKVWTFGRNPACDYHLGNISRLSNKHFQILLGEDGNLLLNDISTNGTWLNGQKVEKNSNQLLSQGDEITVGVGVESDILSLVIFINDKFKQSLEQNKVDRIRSNLKNT
notes: Cell lysate used in the ELISA; not shown: The N-terminal GST of the pGEX-2T vector and the vector junction residues
- binding result [7]: no binding

B2: D2 variant of the FHA1 domain, GST fusion (designed binder)
chain: MENITQPTQQSTQATQRFLIEKFSQEQIGENIVFRVISTTGQIPIRDLSADISQVLKEKRSIKKVWTFGRNPACDYHLGNISRLSNKHFQILLGEDGNLLLNDISTNGTWLNGQKVEKNSNQLLSQGDEITVGVGVESDILSLVIFINDKFKQSLEQNKVDRIRSNLKNT
notes: as for B1
- binding result [7]: no binding

B3: Rad9-pS (peptide)
peptide: Biotin-SGSSLEV[pS]EADATFYAKK-NH2
SMILES: CC(C)C[C@H](NC(=O)[C@H](CO)NC(=O)[C@H](CO)NC(=O)CNC(=O)[C@H](CO)NC(=O)CCCC[C@@H]1SC[C@@H]2NC(=O)N[C@@H]21)C(=O)N[C@@H](CCC(=O)O)C(=O)N[C@H](C(=O)N[C@@H](COP(=O)(O)O)C(=O)N[C@@H](CCC(=O)O)C(=O)N[C@@H](C)C(=O)N[C@@H](CC(=O)O)C(=O)N[C@@H](C)C(=O)N[C@H](C(=O)N[C@@H](Cc1ccccc1)C(=O)N[C@@H](Cc1ccc(O)cc1)C(=O)N[C@@H](C)C(=O)N[C@@H](CCCCN)C(=O)N[C@@H](CCCCN)C(N)=O)[C@@H](C)O)C(C)C
- binding result [8]: no binding

B4: T (designed binder)
FHA1 domain displayed on M13 protein III: MENITQPTQQSTQATQRFLIEKFSQEQIGENIVTRVISTTGQIPIRDLSADISQVLKEKRSIKKVWTFGRNPACDYHLGNISRLSNKHFQILLGEDGNLLLNDISTNGTWLNGQKVEKNSNQLLSQGDEITVGVGVESDILSLVIFINDKFKQSLEQNKVDRIRSNLKNT
notes: also called S34T
- binding result [9]: no binding

B5: C12 variant of the FHA1 domain, phage-displayed (designed binder, not shown: small tags and cut ends)
chain: MENITQPTQQSTQATQRFLIEKFSQEQIGENIVSRVISTTGQIPIRDLSADISQVLKEKRSIKKVRTFGRNPACDYHLGNISRLSNKHFQILLGEDGNLLLNDISTNGTWLNGQKVEKNSNQLLSQGDEITVGVGVESDILSLVIFINDKFKQSLEQNKVDRIRSNLKNT
notes: From the library built on the 3C-3S template
- binding result [10]: no binding

B6: A10 variant of the FHA1 domain, phage-displayed (designed binder, not shown: small tags and cut ends)
chain: MENITQPTQQSTQATQRFLIEKFSHEQIGENIVSRVISTTGQIPIRDLSADISQVLKEKRSIKKVWTFGRNPACDYHLGNISRLSNKHFQILLGEDGNLLLNDISTNGTWLNGQKVEKNSYQLLSQGDEITVGVGVESDILRLVIFINDKFKQSLEQNKVDRIRSNLKNT
notes: as for B5
- binding result [10]: no binding

B7: G9 variant of the FHA1 domain, phage-displayed (designed binder, not shown: large carriers; small tags and cut ends)
chain: MENITQPTQQSTRATQRFLIEKFSQEQIGENIVSRVISTTGQIPIRDLSADISQVLKEKRSIKKVWTFGRNPACDYHLGNISRLSNKHFQILLGEDGNLLLNDVSTNGTWLNGQKVEKNSYQLLSQGDEITVGVGVESDILSLVIFINDKFKQSLEQNKVDRISSNLKNT
notes: as for B5
- binding result [10]: no binding

B8: A7 variant of the FHA1 domain, phage-displayed (designed binder, not shown: small tags and cut ends)
chain: MENITQPTQQSTQATQRFLIEKFSQEQIGENIVSRVISTTGQIPIRDLSADISQVLKEKRSIKKVWTFGRNPACDYHLGNISRLSNKHFQILLGEDGNLLLNDISTNGTWLNGQKVEKNSYQLLSQGDEITVGVGVESDILSLVIFINDKFKQSLEQNKVDRIRSNLKNT
notes: as for B5
- binding result [10]: no binding

B9: Rad9-pY (peptide)
peptide: Biotin-SGSSLEV[pY]EADATFYAKK-NH2
SMILES: CC(C)C[C@H](NC(=O)[C@H](CO)NC(=O)[C@H](CO)NC(=O)CNC(=O)[C@H](CO)NC(=O)CCCC[C@@H]1SC[C@@H]2NC(=O)N[C@@H]21)C(=O)N[C@@H](CCC(=O)O)C(=O)N[C@H](C(=O)N[C@@H](Cc1ccc(OP(=O)(O)O)cc1)C(=O)N[C@@H](CCC(=O)O)C(=O)N[C@@H](C)C(=O)N[C@@H](CC(=O)O)C(=O)N[C@@H](C)C(=O)N[C@H](C(=O)N[C@@H](Cc1ccccc1)C(=O)N[C@@H](Cc1ccc(O)cc1)C(=O)N[C@@H](C)C(=O)N[C@@H](CCCCN)C(=O)N[C@@H](CCCCN)C(N)=O)[C@@H](C)O)C(C)C
- binding result [8]: no binding

B10: Plk1-pT (peptide)
peptide: Biotin-SGSAGPMQS[pT]PLNGAKK-NH2
SMILES: CSCC[C@H](NC(=O)[C@@H]1CCCN1C(=O)CNC(=O)[C@H](C)NC(=O)[C@H](CO)NC(=O)CNC(=O)[C@H](CO)NC(=O)CCCC[C@@H]1SC[C@@H]2NC(=O)N[C@@H]21)C(=O)N[C@@H](CCC(N)=O)C(=O)N[C@@H](CO)C(=O)N[C@H](C(=O)N1CCC[C@H]1C(=O)N[C@@H](CC(C)C)C(=O)N[C@@H](CC(N)=O)C(=O)NCC(=O)N[C@@H](C)C(=O)N[C@@H](CCCCN)C(=O)N[C@@H](CCCCN)C(N)=O)[C@@H](C)OP(=O)(O)O
- binding result [8]: no binding

B11: 4C-4S variant of the FHA1 domain, GST fusion (other)
chain: MENITQPTQQSTQATQRFLIEKFSQEQIGENIVSRVISTTGQIPIRDLSADISQVLKEKRSIKKVWTFGRNPASDYHLGNISRLSNKHFQILLGEDGNLLLNDISTNGTWLNGQKVEKNSNQLLSQGDEITVGVGVESDILSLVIFINDKFKQSLEQNKVDRIRSNLKNT
notes: as for B1
- binding result [7]: no binding
